Results reported in paper PMC12316982 (Nature Communications, 2025).

Legend:
Experiment in all cases: ELISA
Details in all cases: both partners purified
[1] = target: stabilized neuraminidase protein (sNAp) of A/Michigan/45/2015 (MI15, H1N1) (Influenza A virus A/Michigan/45/2015 …, UniProt A0A0X9QTS2, stabilised)
[2] = target: T1, NA of the influenza B-Victoria lineage virus B/Colorado/06/2017 (B/Vic CO17) (Influenza B virus B/Colorado/06/2017 …, UniProt A0A1X9RX69, strain)
T1 construct: not shown: His6, N-terminal, kept

[3] = target: stabilized neuraminidase protein (sNAp) of A/New Caledonia/20/1999 (NC99, H1N1) (Influenza A virus A/New …, UniProt Q7TG96, stabilised)

Measured: binding result

B1: NCS.1 (human IgG1) (antibody, V domains shown)
VH: QVQLPESGPRLVKPSETLSLTCSVSGESISSGGYYWTWIRQHPGKGLEWIGNIFDTGSTHYSPSLKTRLTISIDTSKNQFYLRLNSATAADTAVYYCARVGYSLETDRPYYFGLDVWGQGTTVTVSS
VL: DIVMTQSPLSLPVTPGEPASISCRSSQSLLHSNGYTYLDWYLQKPGQSPQLLIYLASNRASGVPDRFSGSGSGTYFTLKISRVEAEDVGVYYCMQAVQTPWTFGQGTKVEIK
binds: all assays above

B2: NCS.1.1 (human IgG1) (antibody, V domains shown)
VH: QVQLQESGPRLVKPSETLSLTCSVSGESISSGGYYWTWIRQHPGKGLEWIGNIFDTGSTDYSPSLKTRLTISIDTSKNQFYLRLNSATAADTAVYYCARVGFSLETDRPYYLGLDVWGQGTTVTVSS
VL: DIVMTQSPLSLPVTPGEPASISCRSSQSLLHSNGYTYLDWYLQKPGQSPQLLISFTSNRASGVPDRFSGSGSGTYFTLKISRVEAEDVGVYYCMQAVQTPWTFGQGTKVEIK
binds: all assays above

B3: NCS.1.3 (human IgG1) (antibody, V domains shown)
VH: QVQLQESGPRLVKPSETLSLTCSVSGESISSGGYYWTWIRQHPGKGLEWIGNIFDTGSTDYSPSLKTRLTISIDTSKNQFYLRLTSATAADTAVYYCARVGFSLETDRPYYLGLDVWGQGTTVTVSS
VL: DIVMTQSPLTLPVTPGEPASISCRSSQSLLHSNGYTYLDWYLQKPGQSPQLLIYFASNRASGVPDRFSGSGSGTYFTLKISRVEAEDVGVYYCMQAVQSPWTFGQGTKVEIK
binds: all assays above
